# Assay results: patent US6248715A, “Method of treating a urokinase-type plasminogen activator-mediated disorder” (Chiron Corporation, priority 1995, dated 2001)
# Where no end group is shown, it is not given here. Fuc = fucose (fucosylation)
# Tests used:
# [1] = target: Baculovirus-derived recombinant human urokinase receptor, truncated soluble molecule, biotinylated (human) (UniProt Q03405); assay: phage panning on biotinylated soluble uPAR on streptavidin plates; eluted cfu as a percentage of input; control phage
# [2] = target: Baculovirus-derived recombinant human urokinase receptor, truncated soluble molecule, biotinylated (human) (UniProt Q03405); assay: phage panning on biotinylated soluble uPAR on streptavidin plates; eluted cfu as a percentage of input; control phagemid
# [3] = target: Baculovirus-derived recombinant human urokinase receptor, truncated soluble molecule, biotinylated (human) (UniProt Q03405); assay: phage panning on biotinylated soluble uPAR on streptavidin plates; eluted cfu as a percentage of input
# [4] = system: SaOS-2 osteosarcoma cell line; conditions: cited from earlier work
# uPAR = uPAR (Homo sapiens, UniProt Q03405); conditions: cited from earlier work
# Chain of uPAR (Q03405 23-335): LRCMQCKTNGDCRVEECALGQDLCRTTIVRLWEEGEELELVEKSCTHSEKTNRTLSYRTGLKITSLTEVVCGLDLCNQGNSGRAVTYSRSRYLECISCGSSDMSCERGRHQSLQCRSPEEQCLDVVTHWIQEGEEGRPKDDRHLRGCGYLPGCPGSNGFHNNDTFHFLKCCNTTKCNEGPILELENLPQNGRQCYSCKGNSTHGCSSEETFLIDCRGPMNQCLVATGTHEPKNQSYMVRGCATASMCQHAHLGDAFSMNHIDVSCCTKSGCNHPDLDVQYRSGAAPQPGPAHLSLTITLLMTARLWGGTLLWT
# [5] = target: Baculovirus-derived recombinant human urokinase receptor, truncated soluble molecule, biotinylated (human, UniProt Q03405, biotinylated with NHS-biotin); assay: radio-receptor competition assay: 125I-ATF tracer on biotinylated soluble uPAR immobilised on streptavidin plates
# Procedure: Baculovirus-derived recombinant human urokinase receptor was expressed as a truncated, soluble molecule as described previously for mouse L-cells (Masucci et al., *J Biol Chem* (1991) 266:8655). The purified receptor was biotinylated with NHS-biotin, and immobilized at 1 μg/mL in PBS/0.1% BSA on streptavidin coated 96-well plates. Human uPA ATF (residues 1–135, obtained from M. Shuman, University of California, San Francisco) was iodinated using the Iodogen method (Pierce), and used as tracer. The ^125I-ATF was incubated at 100–500 pM with increasing amounts of huPA_1-48 in triplicate (100 pM-1 μM) for 2 hours at room temperature in 0.1% BSA/PBS in a total volume of 200 μL. The plates were then washed 3 times with PBS/BSA, and the remaining bound radioactivity determined.
molecule,measurement,setting,value
LP67 control phage (ampicillin-resistant M13),% Yield (+uPAR),[1],0.0099%
Phagemid pGMEGF displaying M1-FLAG-EGF-medium long pIII (from UniProt P01133),% Yield (+uPAR),[2],0.0012%
Phagemid pHM1a displaying M1-FLAG-UPAELD-short pIII (M1Flag-uPA1-48) (from UniProt P00749),% Yield (+uPAR),[3],0.094%
Phagemid pHM3a displaying Glu-tag-UPAELD-short pIII (Glutag-uPA1-48) (from UniProt P00749),% Yield (+uPAR),[3],0.08%
"fucosylated EGF-like domain: fucosylated EGF-like domain (uPA4-43, produced by cleavage from pro-uPA) (LHQVPSNCDCLNGGT(Fuc)CVSNKYFSNIHWCNCPKKFGGQHCE; cysteine pairing not given here; UniProt P00749 24-63, looked up, fragment)",mitogenic activity,[4],mitogenic
"uPA12-32: the critical domain alone, residues 12-32 of uPA (Appella et al.) (DCLNGGTCVSNKYFSNIHWCN; UniProt P00749 32-52, looked up, fragment)",affinity relative to intact ATF (fold less),uPAR; compared with intact ATF,about 100 fold
same,Kd,"uPAR; critical domain alone, read-out: affinity for uPAR",40 nM
"SNELHQVPSNCDCLNGGTCVSNKYFSNIHWCNCPKKFGGQHCEIDKSK (ligand, ends and bridges not checked; cysteine pairing not given here)",Kd,[5],0.3 nM
